This is an account of results in publication PMC3658131.

What all share (experiment): ELISA
In general terms: ELISA stands for enzyme-linked immunosorbent assay.

The target of assay [1] is Bd-cys dimer (affinity-purified cysteine-terminated B-domain, largely dimers linked by a disulfide bond), unlabeled (Staphylococcus aureus).
Assay [2] addresses FL-labeled Bd-cys dimer (disulfide-linked dimer of cysteine-terminated B-domain labelled with FITC) (Staphylococcus aureus).
Assay [3] deals with Staphylococcus aureus protein A (SpA), wild type, full-length (Staphylococcus aureus) (UniProt P02976).
UniProt P02976, sequence (P02976 37-485): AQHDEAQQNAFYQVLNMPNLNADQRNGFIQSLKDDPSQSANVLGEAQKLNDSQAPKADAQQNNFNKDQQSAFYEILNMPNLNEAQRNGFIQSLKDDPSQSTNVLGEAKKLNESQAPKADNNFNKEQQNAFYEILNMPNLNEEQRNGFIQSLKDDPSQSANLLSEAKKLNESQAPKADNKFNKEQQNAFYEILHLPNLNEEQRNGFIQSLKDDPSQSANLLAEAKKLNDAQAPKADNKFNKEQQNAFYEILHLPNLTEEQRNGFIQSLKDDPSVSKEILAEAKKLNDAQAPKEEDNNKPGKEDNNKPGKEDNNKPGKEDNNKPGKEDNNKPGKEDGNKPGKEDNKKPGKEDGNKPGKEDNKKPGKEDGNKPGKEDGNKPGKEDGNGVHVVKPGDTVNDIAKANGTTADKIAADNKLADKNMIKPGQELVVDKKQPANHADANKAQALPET

In the case of “HRP-conjugated guinea pig IgG (antibody)”, the net absorbance at 405 nm (net absorbance (405 nm)) in assay [1] was 0.85; in assay [2], 0.16; in assay [3] it was 0.84.
Take HRP-conjugated rabbit IgG (antibody): the net absorbance at 405 nm (net absorbance (405 nm)) in assay [1] came to 0.98; in assay [2] it was 0.21; in assay [3] it was 1.25.
